B1: hRpn13 (1–150) (domain or fragment, human, UniProt Q16186 1-150, looked up)
chain: MTTSGALFPSLVPGSRGASNKYLVEFRAGKMSLKGTTVTPDKRKGLVYIQQTDDSLIHFCWKDRTSGNVEDDLIIFPDDCEFKRVPQCPSGRVYVLKFKAGSKRLFFWMQEPKTDQDEEHCRKVNEYLNNPPMPGALGASGSSGHELSAL

Assays:
Experiment in all cases: NMR titration
[1] = molecular target: B1
[2] = molecular target: PADI4 (1–663) (UniProt Q9UM07 1-663)
[3] = molecular target: T1, MBP-HDAC8 (UniProt Q9BY41 8-374)
T1 sequence (looked up): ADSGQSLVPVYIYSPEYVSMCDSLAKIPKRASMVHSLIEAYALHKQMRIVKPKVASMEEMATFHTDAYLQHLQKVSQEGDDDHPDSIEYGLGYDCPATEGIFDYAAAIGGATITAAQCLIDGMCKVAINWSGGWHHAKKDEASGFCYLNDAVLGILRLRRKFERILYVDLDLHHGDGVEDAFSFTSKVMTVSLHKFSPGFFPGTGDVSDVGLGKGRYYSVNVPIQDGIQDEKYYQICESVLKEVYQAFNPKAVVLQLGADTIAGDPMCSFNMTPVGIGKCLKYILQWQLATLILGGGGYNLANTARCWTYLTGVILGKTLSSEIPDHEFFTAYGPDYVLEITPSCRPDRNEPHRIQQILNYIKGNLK

Chain of PADI4 (1–663) (Q9UM07 whole entry): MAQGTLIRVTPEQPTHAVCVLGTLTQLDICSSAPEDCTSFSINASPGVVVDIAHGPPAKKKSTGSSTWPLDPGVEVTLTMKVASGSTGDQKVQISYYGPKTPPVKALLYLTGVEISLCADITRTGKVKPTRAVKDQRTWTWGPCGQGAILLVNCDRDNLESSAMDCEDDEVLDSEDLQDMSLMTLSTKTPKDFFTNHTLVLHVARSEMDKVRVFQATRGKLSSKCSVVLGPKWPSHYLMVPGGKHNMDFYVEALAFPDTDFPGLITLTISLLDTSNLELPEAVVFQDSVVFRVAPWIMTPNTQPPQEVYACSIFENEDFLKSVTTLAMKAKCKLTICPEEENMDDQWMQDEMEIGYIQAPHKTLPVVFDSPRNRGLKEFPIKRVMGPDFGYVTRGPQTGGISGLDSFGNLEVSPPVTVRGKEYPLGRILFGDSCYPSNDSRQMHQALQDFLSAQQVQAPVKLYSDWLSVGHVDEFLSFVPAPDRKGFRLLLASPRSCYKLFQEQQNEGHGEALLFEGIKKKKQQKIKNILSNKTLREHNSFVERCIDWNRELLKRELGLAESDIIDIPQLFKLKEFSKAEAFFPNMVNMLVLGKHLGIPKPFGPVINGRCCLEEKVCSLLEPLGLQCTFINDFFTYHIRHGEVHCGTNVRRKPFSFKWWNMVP

Binder	binding result [1]	binding result [2]	binding result [3]
QEPEPPEPFEYIDD (peptide, UniProt Q99460 940-953, looked up) [hRpn2 (940–953)]	binds	–	–
B1	–	binds	binds

Source: publication PMC10872465 (Molecular cell, 2023)
